Values of other authors as cited in article PMC2957019 (Journal of labelled compounds & radiopharmaceuticals, 2009).
Where no end group is shown, it is not given here.

Details: incubation in serum

## ^125I-FROP-1: 12-amino acid synthetic peptide radiolabeled with iodine (EDYELMDLLAYL), selected by phage display for targeting thyroid carcinoma cells (also: 125I radiolabel)
  time to degradation in serum: ≤ 30 min
